From paper PMC5508133

Target: PfEMP1B (GFP-tagged minimal PfEMP1 construct) (P. falciparum)
Assay: co-IP; GFP-Trap on parasite lysates crosslinked with increasing concentrations of DSP; 1% Triton X-100, 150 mM NaCl, 50 mM Tris-HCl pH 7.4; western blot of eluates

B1: ring-exported protein-1 (REX1) (natural protein)
chain: MADYSSNEEETPKEEKKISKLEDMQSPFDYKRFFRKYTIFAPFILVYFTLMFFVNSTVQNGTMLLNSIKENANSKLPALLWNKIIGKGNDNEVNFEDKKMIEGNKSGNGEEHNKHKRRQVDNQEDDYDVDEYGNPKSGAPYKSEEEHAEQQNYYGEHHGDYEDKNEYHGKSNIENNKDFPEQGQKDEEKEKEAKKKAEEFEKRKQLHEEEKRKARETQQALHKKLQEQLQRLKEQEKKKVEHQKLIHKIKTQGDVDPAVQKVLNKYNQKEKDEEQQILKIRDLQVQLRHIQQRIQSLKSTNNGQPKTKDEYLQLKDLQKEYYDKEQDEQNMIEHLEHLQGEMQYLYEELQIVYDENQAKTAQAKDEQHELKPQAEKDASKLTTTYDQTKEVKPQAEKDASKLTTTYDQTKEVKPQAEKDASKLTTTYDQTKEVKPQAEKDALAKTENQNGELLPQAEKDASKLTTTYDQTKEVKPQAEKDALAKTENQNGELLPQAEKDASKLTTTYDQTKEVKPQAEKDALAKTENQNGELLPQAEKDASKLTTTYDQTKEVKPQAEKDALAKTENQSGELLTQAEKDALAKKESEAPKGSSTSDKNTTENQLNAEAQSEVKPQWQKDYWKSKNESQTETNNTWKKDSWKKKTEEQQNAEAQQEVKSPYEKYSYNKETKPQNDKYTLNKEVKPQNEKYTYNQKVKAENTESEKSLLESSVFN
Binder B1 has a fold increase of pull-down in the presence of DSP greater than 10 fold.
